The text below walks through data of article PMC7900552, “Iris domestica (iso)flavone 7- and 3′-O-Glycosyltransferases Can Be Induced by CuCl2” (Frontiers in Plant Science, 2021).

Changes are numbered by the printed parent chain.

The labels stand for the following.
B1: BcUGT8 (Iris domestica) (protein)
chain: MEFTQSVILYPSLGMGHLIPTLELAKLFIDQGFSVTIVVIDSPPSDTSSTMDSFISRASSAYPSLSFHRLPKVAPPASKLPMVFLSETVRLANASLLDFLSSKKSTSDIRAVVLDMFCSASLDIVEELHLPSYFFFSSSASALAACLFFPTLQSQLAGSFRDLGSSPVHFPGLPPIPASDLPADVQVRGESYDAALAHFVRLPRADGIMINTFESLEKRAVRALVDGVCVPGRATPPVYCIGPLIADGSDGGERHECLAWLDAQPERSVVFLCFGSMGSFSTEQLKETAGGLERSGQRFLWVVRSPPSDPAYPFGPRAETELEALLPEGFLERTRERGMVLESWAPQAAVLAHRSVGGFVSHCGWNSTLEAVCSGVPMLGWPLYAEQRMNRVSLVEEAKVAVAMEGCHNGLVSADEVETKIRRLMESRALGERMAATKERAVAARTEGGESTLALLELVRALRKATPGTGA
notes: full ORF in pCold-TF, E. coli, His-tag + trigger factor fusion (~105 kDa; UGT ~53 kDa), Ni-NTA
B2: BcUGT7 (Iris domestica) (protein)
chain: MQLKESVVLFPSVGMGHLIPMVELAKLFIGHGFSVTIVVVEPPFDASTTSGPFISRVSSEYPSISFHRLPKVVPPATSKPPMIVIYETLRLACPHLLDFLKTIRSTAKVRALVLDMFCTSALDVADELGLPSYFFFASGASALAAYLLLPTLQSKLDGNFRDLGSSPVHFPGVPPVPASDLLTHVQERGESNDGIMLHFKRFPRAKGIMINTPEWLEKRAVEALANGECLPDRTMPPVYCIGPLVANGSNGGEGGGERHECLAWLDAQPEKSVVFLCFGSLGSFSGEQLKEMAIGLERSGQLFLWVVRSPPLKDDPAARPGARPEPDLEALLPEGFLERTKGKGMVVKSWAPQAAVLAHGSVGGFVSHCGWNSTLEAVSSGVPIIAWPLYAEQRMNKVFLVEEAKVAVAMEGYDKDIVSAEEVEKKIRWLMESKDGKAMKDRAVEAKEKAVAAWKEDGSSSLAWLELERALRMGA
notes: as for B1
B3: BcUGT1 (Iris domestica) (protein)
chain: MQLKESVVLFPSMGMGHIIPMVELAKLFIGHGFSVTIVDVEPPFDDSTTKGPFISRISSEYPSISFHRLPKVIPPATSRPPVFAFIETLRLACPHLLDFLKTIRSTTNVRALVLDMFCTPALDVADELGLPSYFFFSSSASILAAFLFFPILQDKLDGNFRDLGSSPIHFPGLPPVPASDLPTQMQERGEANDGIMFHFNSYPRATGIMINTLEWLEKRAIEVLANGECLPDRTMPPVYCIGPLVATGSNEGEGEGEGEKHECLAWLDAQPEKSVVFLCFGSMGSFSAEQVKEIAIGLERSGQRFLWVVRSPPLKDDPAARHGARPEPDLEALLPEGFLERTKEKGMVVKSWAPQAAVLAHGSVGGFVSHCGWNSTLEAVSSGVPIIAWPLYAEQRMNKVFLVEEAKLAVAMEGYNKDVVSAEEVEKKIRWLMESEDGKALKDRAVEAKEKAVAAWKQEGSSFLAWLELVRAVRKEA
notes: as for B1
B4: BcUGT4 (Iris domestica) (protein)
chain: MQLKESVVLFPSVGMGHLIPMVELAKLFIGHGFSVTIVVVEPPFDVSTTNHPFISRVSSEYPSISFHRLPKVVPPATFRPPVIVLFETLRLACPQLLDFLKTIRSTSNVRALVLDMFCTSALDVADELGLPSYFFFASGASTLAAFLLFPTLQSKLDGNFRDLGSSPVHFPGLPPVPASDLPTQMQERGEANDGIMFHFKRLPRAKGIMINTPEWLEKRAVEALANGECLPDRTMPPVYCIGPLVASGSNGGGGGEGERHECLAWLDAQPKKSVVFLCFGSMGSFSAEQVKEMAVGLERSGQRFLWVVRSPPLKDDPAARPGARPEPDLEALLPEGFLERTKGKGMVVKSWAPQAAVLAHGSVGGFVSHCGWNSTLEAVSSGVPIIAWPLYAEQRMNKVFLVEEAKLAVAMEGYNKDVVSAEEVEKKIRWLMESEDGKALKDRAVEAKEKAVAAWKQEGSSFLAWLELVRAVRKEA
notes: as for B1
B5: BcUGT5 (Iris domestica) (protein)
chain: MQLKESVVLFPSVGMGHLIPMVELAKLFIGHGFSVTIVVVEPPFDVSTTNHPFISRVSSEYPSISFHRLPKVIPPATSRPPVFAFIETLRLACPHLLDFLKTIRSTSNVRALVLDMFCTSALDVADELGLPSYFFFASGASTLAAFLLLPTLQSKLDGNFRDLGSSPVHFPGLPPVPASDLLIHVQERGEANDEIMFHFKRLPRAKGIMINTMEWLEKRAVEALANGECLPDRTMPPVYCIGPLVASGSNGGGGEGERHECLAWLDAQPEKSVVFLCFGSMGSFSAEQVKEMAVGLERSGQRFLWVVRSPPLKDDPAARPGARPEPDLEALLPEGFLERTKGKGMVVKSWAPQAAVLAHGSVGGFVSHCGWNSTLEAVSSGVPIIAWPLYAEQRMNKVFLVEEAKLAVAMEGYNKDVVSAEEVEKKIRWLMESEDGKALKDRAVEAKEKAVAAWKQEGSSSLAWLELVRAVRKEA
notes: as for B1
B6: BcUGT2 (Iris domestica) (protein)
chain: B3 chain with E344G, N416D, A440V, L441M, W456R, K457M, E459D, F463S

Substrate in the first data set: COc1cc(-c2coc3cc(O)c(OC)c(O)c3c2=O)cc(O)c1OC
In words: HPLC glucosylation assay. Type of data set: biochemical, Iris domestica. The note with it: 2 mM UDP-glucose, 1 mM DTT, 50 mM PBS, pH 8.0, 30°C, 10 min.
The term Km denotes the concentration of substrate that gives half-maximal velocity. What is called kcat is the number of substrate molecules converted per active site and unit of time at saturation. By kcat/Km is commonly meant the second-order rate constant that governs catalysis at low substrate concentration. On to B1, for which the Michaelis constant (Km) was determined as 1423 ± 21 µM, the kcat was 11.97 ± 1.31 s⁻¹ and the catalytic efficiency (kcat/Km) turned out to be 8410 M⁻¹ s⁻¹.
In the case of B2, the Km was 894 ± 11 µM, the kcat was 17.73 ± 9.89 s⁻¹ and the kcat/Km was determined as 19800 M⁻¹ s⁻¹.
On to B3, for which the Michaelis constant (Km) stood at 210 ± 13 µM, the catalytic constant (kcat) turned out to be 58.88 ± 3.24 s⁻¹ and the kcat/Km was 280000 M⁻¹ s⁻¹.
B4: the Km came out at 190 ± 7 µM, the kcat came to 57.23 ± 18.21 s⁻¹ and the catalytic efficiency (kcat/Km) was 301000 M⁻¹ s⁻¹.
The like results for B5 were, in that order, 121 ± 9 µM, 296.52 ± 11.8 s⁻¹ and 2.45e+06 M⁻¹ s⁻¹.

Substrate in another data set: COc1c(O)cc2occ(-c3ccc(O)cc3)c(=O)c2c1O
In words: purified protein. Particulars: 2 mM UDP-glucose, 1 mM DTT, 50 mM PBS, pH 8.0, 30°C, 10 min.
Take B2: the Michaelis-Menten constant (Km) was 1269 ± 9 µM, the turnover number (kcat) is 15.86 ± 7.53 s⁻¹ and the catalytic efficiency (kcat/Km) amounted to 19800 M⁻¹ s⁻¹.
The like results for B3 were, in that order, 592 ± 49 µM, 57.29 ± 4.94 s⁻¹ and 96800 M⁻¹ s⁻¹.
Regarding B6, the Michaelis constant (Km) is 392 ± 7 µM, the catalytic constant (kcat) turned out to be 70.10 ± 9.86 s⁻¹ and the kcat/Km was determined as 179000 M⁻¹ s⁻¹.
Consider B4, for which the Michaelis constant (Km) turned out to be 115 ± 23 µM, the kcat is 155.18 ± 12.26 s⁻¹ and the specificity constant (kcat/Km) is 1.35e+06 M⁻¹ s⁻¹.
Consider B5, for which the Km came to 201 ± 15 µM, the kcat was determined as 116.03 ± 6.98 s⁻¹ and the specificity constant (kcat/Km) came to 577000 M⁻¹ s⁻¹.
